US20110262525A1, “METHODS OF TREATMENT” (SCHERING CORPORATION, priority 2006, published 2011)
Marks after values point to notes of the source that are not given here.

Assays:
[1] = tested on: BT-28 xenograft (Medulloblastoma); assay: PPTP in vivo xenograft BT-28; details: BT-28 (Medulloblastoma) xenograft, 0.5 mg per mouse ip twice weekly for four weeks
Procedure: (§1) The PPTP includes a molecularly characterized in vitro panel of cell lines (n=27) and in vivo panel of xenografts (n=61) representing most of the common types of childhood solid tumors and childhood ALL (acute lymphoblastic leukemia). LCF/HCA anti-IGF1R antibody was tested against the PPTP in vitro panel at concentrations ranging from 0.01 nM to 100 nM; and was tested against the PPTP in vivo panel at a dose of 0.5 mg per mouse administered twice weekly for four weeks via intraperitoneal injection. Three measures of antitumor activity were used: 1) response criteria modeled after the clinical setting; 2) treated-to-control (T/C) tumor volume at day 21; and 3) a time to event (4-fold increase in tumor volume) measure based on the median EFS of treated and control lines (intermediate activity required EFS (event-free survival) T/C>2, and high activity additionally required a net reduction in median tumor volume at the end of the experiment).
(§2) Stage 1 testing involved testing an agent across the entire PPTP panel of childhood cancer xenograft lines at its maximum tolerated dose (MTD) or at a dose selected based on PK/PD (pharmacokinetic/pharmacodynamic) studies using adult preclinical models.
(§3) In vivo solid tumor testing: For each xenograft line, 10 mice bearing subcutaneous (SC) tumors initiated treatment when the tumors were between 0.2-0.5 cm^3 in volume. Two perpendicular tumor diameters were measured at once weekly intervals with digital vernier calipers. Assuming tumors to be spherical, volumes were calculated from the formula (π/6)×d3, where d represented the mean diameter.
(§4) Drug: LCF/HCA was dissolved in 20mM sodium acetate pH 5 buffer containing 150 mM sodium chloride, and administered intraperitoneally twice weekly for 4 consecutive weeks at a dose of 0.5 mg per animal. […]
(§5) Median Group Response: Each individual mouse in each treatment group was assigned a response score (see Tables above) and a median score for the treatment group was calculated and then each treatment group was assigned an overall response according to the table below. […]

[2] = tested on: NB-SD xenograft (Neuroblastoma); assay: PPTP in vivo xenograft NB-SD; set-up: key to EFS activity notation (high, intermediate, indeterminate): high (!); intermediate (#); indeterminate (^)
Procedure: as §1, §2, §3
(§6) Drug: LCF/HCA was dissolved in 20mM sodium acetate pH 5 buffer containing 150 mM sodium chloride, and administered intraperitoneally twice weekly for 4 consecutive weeks at a dose of 0.5 mg per animal. The antibody was provided to each testing site in coded vials for blinded testing according the PPTP's standard operating procedures.
(§7) Median Group Response: Each individual mouse in each treatment group was assigned a response score (see Tables above) and a median score for the treatment group was calculated and then each treatment group was assigned an overall response according to the table below.
(§8) Statistical Methods: Event-free survival (EFS) distributions of each treatment group were compared to the EFS distribution of the respective control group using the exact log rank test. P-values were 2-sided & were not adjusted for multiple comparisons given the exploratory nature of this study. P-values<0.05 were considered to be significant.

[3] = tested on: KT-14 xenograft (Rhabdoid); assay: PPTP in vivo xenograft KT-14; set-up: key to EFS activity notation (high, intermediate, indeterminate): high (!); intermediate (#); indeterminate (^); details: KT-14 (Rhabdoid) xenograft, 0.5 mg per mouse ip twice weekly for four weeks
Procedure: as §1, §2, §3, §6, §7, §8

[4] = tested on: TC-71 xenograft (Ewings); assay: PPTP in vivo xenograft TC-71; details: TC-71 (Ewings) xenograft, 0.5 mg per mouse ip twice weekly for four weeks
Procedure: as §1, §2, §3, §4, §5

[5] = tested on: KT-13 xenograft (Wilms); assay: PPTP in vivo xenograft KT-13; details: KT-13 (Wilms) xenograft, 0.5 mg per mouse ip twice weekly for four weeks
Procedure: as §1, §2, §3, §4, §5

[6] = tested on: ALL-19 xenograft (ALL B-precursor); assay: PPTP in vivo leukemia xenograft ALL-19; details: ALL-19 (ALL B-precursor) xenograft; 0.5 mg per mouse ip twice weekly for four weeks
Procedure: (§9) The PPTP includes a molecularly characterized in vitro panel of cell lines (n=27) and in vivo panel of xenografts (n=61) representing most of the common types of childhood solid tumors and childhood ALL (acute lymphoblastic leukemia). LCF/HCA anti-IGF1R antibody was tested against the PPTP in vitro panel at concentrations ranging from 0.01 nM to 100 nM; and was tested against the PPTP in vivo panel at a dose of 0.5 mg per mouse administered twice weekly for four weeks via intraperitoneal injection. […]
(§10) In vivo acute lymphoblastic leukemia testing: For each xenograft line, 8 mice were inoculated with 3-5×10^6 mononuclear cells purified from the spleens of secondary recipient mice. Engraftment was monitored weekly by flow cytometry, and treatment was initiated when the proportion of human CD45+ cells in the peripheral blood reached 1%. The proportion of human CD45+ cells in the peripheral blood was monitored weekly throughout the course of treatment. […]
as §5

[7] = tested on: OS-1 xenograft (Osteosarcoma); assay: PPTP in vivo xenograft OS-1; set-up: key to EFS activity notation (high, intermediate, indeterminate): high (!); intermediate (#); indeterminate (^); details: OS-1 (Osteosarcoma) xenograft, 0.5 mg per mouse ip twice weekly for four weeks
Procedure: as §1, §2, §3, §4, §5

[8] = tested on: Rh30R xenograft (ALV Rhabdomyosarcoma); assay: PPTP in vivo xenograft Rh30R
Procedure: as §1, §2, §3, §6, §7, §8

[9] = tested on: CHLA-79 xenograft (Neuroblastoma); assay: PPTP in vivo xenograft CHLA-79; set-up: key to EFS activity notation (high, intermediate, indeterminate): high (!); intermediate (#); indeterminate (^); details: CHLA-79 (Neuroblastoma) xenograft, 0.5 mg per mouse ip twice weekly for four weeks
Procedure: as §1, §2, §3, §6, §7, §8

[10] = tested on: A498 human kidney carcinoma tumor cells; assay: A498 renal cell carcinoma xenograft in athymic nude mice; type: in vivo, mouse; details: 0.1 mg/injection ip two times per week, seven times starting on day 12
Procedure: Athymic nude mice were inoculated with A498 human kidney carcinoma tumor cells in the right flank, subcutaneously, along with Matrigel (1:1::cells:gel). In these experiments, 5×10^6 cells/mouse in a 1:1 mix with regular matrigel. The LCF/HCA anti-IGF1R antibody was inoculated intraperitoneally (ip) (0.1 mg/injection). Mice were dosed with antibody two times per week, by intraperitoneal injection, seven times starting on day 12. Tumor size was measured with calipers and the data was entered into the LABCAT data experimental collection and analysis program program (Innovative Programming Associates, Inc.; Princeton, N.J.). Mice were grouped with average size of 100 mm^3. Tumor size and body weight were measured twice weekly.

[11] = tested on: ALL-4 xenograft (ALL B-precursor); assay: PPTP in vivo leukemia xenograft ALL-4; details: ALL-4 (ALL B-precursor) xenograft; 0.5 mg per mouse ip twice weekly for four weeks
Procedure: as §9, §10, §5

[12] = tested on: BT-44 xenograft (Ependymoma); assay: PPTP in vivo xenograft BT-44; set-up: key to EFS activity notation (high, intermediate, indeterminate): high (!); intermediate (#); indeterminate (^); details: BT-44 (Ependymoma) xenograft, 0.5 mg per mouse ip twice weekly for four weeks
Procedure: as §1, §2, §3, §6, §7, §8

[13] = 0.5 mg per mouse ip twice weekly for four weeks
[14] = day 21, 0.5 mg per mouse ip twice weekly for four weeks

B1: LCF/HCA: fully human anti-IGF1R antibody comprising the mature 19D12/15H12 light chain F (LCF) and mature heavy chain A (HCA) (antibody, V domains shown)
VH: EVQLVQSGGGLVHPGGSLRLSCAASGFTFSSFAMHWVRQAPGKGLEWISVIDTRGATYYADSVKGRFTISRDNAKNSLYLQMNSLRAEDMAVYYCARLGNFYYGMDVWGQGTTVTVSS
VL: EIVLTQVPDFQSVTPKEKVTITCRASQSIGSSLHWYQQKPDQSPKLLIKYASQSLSGVPSRFSGSGSGTDFTLTINSLEAEDAAAYYCHQSSRLPHTFGGGTKVEIKRT
EFS T/C [1]: 1.2 | Median Final RTV [1]: >4 | Tumor Volume T/C ([1]; day 21): 1.18 | EFS T/C [2, 13]: > 1.8 | EFS activity notation (high, intermediate, indeterminate) [2, 13]: ^ | Median Final RTV [2, 13]: 3.7^ | Overall Group Response [2, 13]: PD2 (1 < MS ≦ 3) | Tumor Volume T/C [2, 14]: 0.41 | EFS T/C [3]: > 3.3 | EFS activity notation (high, intermediate, indeterminate) [3]: # | Median Final RTV [3]: 1.6# | Overall Group Response [3]: PD2 (1 < MS ≦ 3) | Tumor Volume T/C ([3]; day 21): 0.6 | EFS T/C [4]: 1.2 | Median Final RTV [4]: >4 | Tumor Volume T/C ([4]; day 21): 0.88 | EFS T/C [5]: 1.1 | Median Final RTV [5]: >4 | Tumor Volume T/C ([5]; day 21): 0.84 | EFS T/C [6]: 1.5 | Median Final RTV [6]: >25 | EFS T/C [7]: > 1.3 | EFS activity notation (high, intermediate, indeterminate) [7]: ^ | Tumor Volume T/C ([7]; day 21): 0.16 | EFS T/C [8, 13]: 1.8 | Median Final RTV [8, 13]: >4 | Overall Group Response [8, 13]: PD2 (1 < MS ≦ 3) | Tumor Volume T/C [8, 14]: 0.49 | EFS T/C [9]: 2.1 | EFS activity notation (high, intermediate, indeterminate) [9]: # | Median Final RTV [9]: 3.9# | Overall Group Response [9]: PD2 (1 < MS ≦ 3) | Tumor Volume T/C ([9]; day 21): 0.69 | in vivo growth of renal cell carcinoma tumor [10]: in vivo growth inhibition | EFS T/C [11]: 0.8 | Median Final RTV [11]: >25 | EFS T/C [12]: 2.6 | EFS activity notation (high, intermediate, indeterminate) [12]: # | Median Final RTV [12]: >4# | Overall Group Response [12]: PD2 (1 < MS ≦ 3) | Tumor Volume T/C ([12]; day 21): 0.66
